Laboratory results published in the domain aggregation screens of Martell et al. (2025).

Assay: soluble fraction after stress (log2 fold change); higher = more stays soluble; pooled small domains, quantitative proteomics
Settings: stress: 50 degC
How it was run: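 Pooled custom libraries of small protein domains were each held under stress at 50°C. The read-out, high-throughput quantitative proteomics, tracked how much of each protein stayed soluble. This is reported as a base-two log fold change used to indicate aggregation propensity. Higher values mean more protein remains in solution.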

| Sequence | soluble fraction (log2) |
| --- | --- |
| HMWDRFGELDSAEEINRIAAAELREGDIDALKVLAEENGLDKDDVEDYIDRLIDELTTPELAAIGKLDV | 0.0934 |
| HMTKQIILVHVAGKVKKPDVYPLLQGSRVADAIKAAGGAKKGVELNDINLARVLIDGEQVFVGYVPE | -1.58 |
| HMVVPSNPDELKGSFSLAEVASGYGLEVAAILEKAGWPADTDPNVKMRDAANAIGRDSTDIRNAVKALLKS | -0.0505 |
| HMAEDGNMTFEEYAKRWLARQVRYAPSTLESYRRMLGRVYPFIGAIPINRLRPIALENLLAELRKRT | -0.48 |
| HMPVASNRDVNLDIGERVFVQEWAPNRTARVQYRGSPWEARLAPGAPAAAGEHRVSAVEGNWLVLEPA | -0.0102 |
| HMRTVLSDETYLRIREMLLTHDIAPGERINIDALARELDVSQTPVREALARLESEDLVTKEPLRGYTATK | -0.017 |
| HMDGLPYPEAAEEPIAQVARNLGMDATRVSIALQEAKLIFRNLDETLAEIAANNGTTPQVVYDAIRHLEPP | -0.095 |
| HMARAGKLAQDMAVWTKETMLNTERNFISLRHFKRELLRRTLAPGESEQTVRAMEEAGYIQVKDGLVFPIK | -1.74 |
| HMSENIQLQKEQLYQLIAQLPEQRQKIFRLHKIDNYSYQEISDFTGLSRKTIANHIYLAHQFILKKVKK | -3.25 |
| HMSDLVATKEQVVEAYKYGLGLGLDNSTLKMLLFDIRGEDVADQDKISDGMTVSEIEIWKEGMRTIAEEYL | -0.508 |
| HMSIESMVGRFGVVTKDVVANEMAGKVKVGREEFRATADIAVSSGTKVKVTHAEGITLTVVPE | 0.378 |
| HMTKINAPMPGNILDVKVNVGDHVEANQLVLMLEAMKMENEIFTPVAGTVVGVHVKKGDSVNSDDLLISI | -0.228 |
| HMNMNDIKFGKYLKRVRKKYNFSKEYVANILKVKESLVSDWESGRLTLNDEYMEKLSLFYGVNLYKK | -0.863 |
| HMSSSYTEMQLDKLKKLLEKETLLSSEKSELKSLIHDFDKIPEVVSPLIVGEYLRLKNKYIAVINSLE | -0.214 |
| HMSQDINVFIKTNPENATIIWDGESKGTNGIFKSNAGAHRLRIEMQGYESIDQDIQVSDKQFSFEYNLKKE | 0.152 |
| HMNGVPDMSPVPEGARNSTLHAWAFGRLKNHPDNETGIREDLFRRGHASGLQDAELDQIWKSIKRTL | 0.0847 |
| HMNMIGDVIRNLRTVSSMTQTELGQRMGVIKQTISNWEKNISTPSIDAIVKLSSIFNVPTDYLL | -1.06 |
| HMNVYAGTMINVVGLQVEDAASRLRGLFYSVKIVEEESQEPDGKVLRQNIAEGTKDLEAWTLVELTVSKYV | -0.872 |
| HMRATLTDETARVVQEPTSESISLTSLRKGEEFEIGKVIRKKKEVWVTVTTSSGVKGYISGDTHIF | -0.0573 |
| HMTLGENLQNLRKEAGLSQEQVAQQLFVSRQTVSKWENNLAEPGVENLKALARLYGVTLDRLVGM | -0.0572 |
| HMDVNKDLLGETLEKAKSYKADDWRKASYEALQKAIVEAEAVYKDEEADQVAVDRKVAALNKAINNLEAKG | -0.234 |
| HMALPQPDDDRQDTKKRILDMAEDLLLTRGFNAFSYQHISSELGMKNAAIHYHYPKKNDLGVAVIQRYRRR | 0.151 |
| HMLDQGTQSRYQIMDGVRALITGDWSSHGAGLVRELSQEVARTSGLTATSERTFFVPFSALS | 0.0364 |
| HMSGTESMIEGRGEARTAIDGEGKVFFQGEYWTAQSDQFIPQGAKVRIKKVEGLNLIVEEIK | 0.0805 |

| Sequence | soluble fraction (log2) |
| --- | --- |
| HMTDEEFSRIVKYTAVRYGINLYHKKVMVEGRLSNYLAANGFKSYTEYMDRVEADYTGQEAQNLINILTT | -0.258 |
| HMTGKTTLEYLNPLLERGIPVWDYLAKASGKAKEEVQEMVSKGLVPGAEAAKAIADYMGAEFAGSMA | 0.0316 |
| HMSDAQIKASINDLWFKYNLETFAKLNLNVNQGRVLVTGIVQNPEHRLEAIRLVWTVDGVQQVINEIQVAE | -0.795 |
| HMSDLPLLEHARQNLSDDEFRILELTTIYGYRRVEVAKMLGEPISTINWKYNKLIKKVKTFYGEVYN | -1.02 |
| HMNIYFNIEDAVANAVVENGKMSAAIYEKNVDTGEVAKLAEVSMPVMGGNINITKTLLTKALISQLP | -0.384 |
| HMNTGFPIILETSDAANLTVGAPIMYRGVEVGKIRNMELNSLGDRVLIHILIGHKYQHLVRQNSEFWFSS | -4.54 |
| HMGEKFTFGQIAKAKAYAKTYANDMTSAVKNIEAIATGLSKHPEVADTLKKANENQELNRITKLAG | 0.149 |
| HMGVEKHLRITGTSTVSWKDAIVQAVAEASKTIDYLSNVKIIEQRARIDGKKLVEYFVDLDLSFVID | -0.0917 |
| HMVMPTGRVRYYDAEKGFGFLSKDSGGDDVYVRSSALPAGVTSLKRGQKVEFGIIDGKRGEQALSVHLL | -0.0933 |
| HMAKLTPDQQELRAIRIELQMSQPDFADAININVPRLSSYEYGRTAGVPTSIMEAARELKRSMSR | -0.811 |
| HMSLPQSKDAVITILRTLPQLDTRAPEVYKLLGPHALDIILEDPEQVAKKINHVGVATAKLWQQALLGFK | -0.2 |
| HMQMRKENKILVTDIGEIDEVKVIFDDDNKPYLYSYNGEDEFYRPDETYKFFDNKEQAEEYVREN | 0.0625 |
| HMGRYDWIEQIDDPVLAERLKHLTEDDLELLTRYVFEDATQKELASQYGIGQQSVSKRLKKLKSFLTK | 0.00228 |
| HMAGASQAVKAQLRLREMILAGELPGGARIAELTLVEKLGVSRTPIRAALMRLEQEGLLHRLPGGGYAVRT | -0.52 |
| HMRRSDLVTQGDEILKRLQWNQQQAKDFLNQHLKASSRQQLTDEQLLNFNMLLEEQLVKSME | 0.103 |
| HMETPEIPGLTPRQVEIMLLVGKGYSNKEIARFLTISPETVKTHLKEVFLRFGLRNRVEAIDFTRQNGL | -0.363 |
| HMSTRLIGEIGVVTKDLGAGLKENGSIQIGREEWPAETKDMEHIPMGTRVKVIHIEGTRLVVEA | -0.629 |
| HMAVKYTKDDFLYTEKPYEAIYDYKNDPFMHNLKIEQMAQQAAEVGVKTFKGLYKNYVKMREMQRGANV | 0.14 |
| HMDAGIVVPDTYNKPLAEAVASLEGEGFRTEKKEGYSDTVAKGNVMSQNPEAGTNAERGSTVTIVISQGPQ | 0.0495 |
| HMEDVLVTQIIQLKHVDANDMKTLFTPLLSRGSSQLLAYPQSNVLIITDTRSNIKKITEILDIIDKS | -0.629 |
| HMDSPRITMDQLRIGLYVYLDLTWFQHPFAFSHFKINSEDQIKTILGLGLKSVRYDPALSDPV | -2.67 |
| HMAGPRRRLLDAAIDRAAERGLGDLSLRALAEELGTSHRMLSHHFGSKDGLWLAIVEEVERRQ | -0.952 |
| HMVKNLRKLREELGLTQQRLAELTGISKSRIYSYESLDREPDIAGLITLADFFSVSIDYLVGK | -1.78 |
